The record followed here is patent US6972319B1, “Pituitary adenylate cyclase activating peptide (PACAP)receptor 3 (R3) agonists and their pharmacological methods of use” (priority 1999, dated 2005).

This experiment deals with T1, PACAP-R3 (human, UniProt P41587 24-438).
T1 sequence (looked up): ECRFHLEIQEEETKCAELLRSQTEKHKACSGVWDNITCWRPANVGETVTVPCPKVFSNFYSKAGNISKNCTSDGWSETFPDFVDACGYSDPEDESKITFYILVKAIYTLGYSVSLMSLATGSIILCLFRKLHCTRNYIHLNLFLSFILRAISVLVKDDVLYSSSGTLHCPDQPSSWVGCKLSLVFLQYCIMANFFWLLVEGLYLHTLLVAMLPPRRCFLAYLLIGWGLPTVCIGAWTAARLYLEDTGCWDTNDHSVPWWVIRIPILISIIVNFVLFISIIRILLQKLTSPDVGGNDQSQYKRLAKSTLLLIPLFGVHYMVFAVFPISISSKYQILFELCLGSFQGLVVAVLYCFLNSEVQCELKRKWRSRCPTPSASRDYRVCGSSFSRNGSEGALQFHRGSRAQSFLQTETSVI
Nature of the experiment: cell-based or functional assay.

On to HSDAVFTDNYTRLRKQMAYKKYLNSIKNKR [R3P115], for which the “R3 EC50” value was 6000 pM and the “R3 Selectivity” value was 50.

As to HSDAVFTDNYTRLRKQMAEKKYLNSIKNKR [R3P99], the “R3 EC50” value is 1000 pM and the “R3 Selectivity” value was 40.

Consider HSDAVFTDNYTRLRKQMAGKKYLNSIKNKR [R3P101], for which the “R3 EC50” value amounted to 1000 pM and the “R3 Selectivity” value turned out to be 400.

As for HSDAVFTDNYTRLRKQMASKKYLNSIKNKR [R3P111], the “R3 EC50” value turned out to be 3000 pM and the “R3 Selectivity” value was found to be 300.

With HSDAVFTDNYTRLRKQMAAKKYLNSIQNKR [R3P127], the “R3 EC50” value was found to be 500 pM and the “R3 Selectivity” value was 600.

With HSDAVFTDNYTRLRKQMAVKKYLNSIKKGGT [R3P9], the “R3 EC50” value came out at 2000 pM and the “R3 Selectivity” value was found to be 20.

Regarding HSDAVFTDNYTRLRKQLAAKKYLNDIKKGGT [R3P12], the “R3 EC50” value turned out to be 500 pM and the “R3 Selectivity” value is more than 200.

For the molecule HSDAVFTDNYTRLRKQVAAKKYLQSILNK [R3P94], the “R3 EC50” value stood at 90 pM and the “R3 Selectivity” value was determined as 100.

In the case of HSDAVFTENYTKLRKQLAAKKYLNDLLNGGT [R3P10], the “R3 EC50” value came to 11000 pM and the “R3 Selectivity” value was 0.3.

In the case of HSDAVFTDNYTKLRKQLAAKKYLNDILNGGT [R3P11], the “R3 EC50” value turned out to be 3000 pM and the “R3 Selectivity” value was 3.

As to HSDAVFTDNYTRLRKQMAAKKYLNSIANKR [R3P116], the “R3 EC50” value amounted to 1000 pM and the “R3 Selectivity” value turned out to be 20.

HSDAVFTDNYTRLRKQMAPKKYLNSIKNKR [R3P108]: the “R3 EC50” value came out at 300000 pM and the “R3 Selectivity” value was 3.

HSDAVFTDNYTRLRKQVAVKKYLQSILKKR [R3P88]: the “R3 EC50” value amounted to 80 pM and the “R3 Selectivity” value stood at 12.

With HSDAVFTDNYTRLRKQVAVKKYLQSILKK [R3P89], the “R3 EC50” value came to 60 pM and the “R3 Selectivity” value stood at 15.

With HSDAVFTDNYTRLRKQMAAKKYLNSIVNKR [R3P131], the “R3 EC50” value came to 300 pM and the “R3 Selectivity” value was 70.

For HSDAVFTDNYTRLRKQMAKKKYLNSIKNKR [R3P104], the “R3 EC50” value came out at 200 pM and the “R3 Selectivity” value turned out to be 500.

As for HSDAVFTDNYTRLRKQMAAKKYLNSISNKR [R3P129], the “R3 EC50” value is 1000 pM and the “R3 Selectivity” value came to 50.

Take HSDAVFTDNYTRLRKQMAAKKYLNSIRNKR [R3P128]: the “R3 EC50” value was determined as 300 pM and the “R3 Selectivity” value turned out to be 200.

For the molecule HSDAVFTDNYTRLRKQMAHKKYLNSIKNKR [R3P102], the “R3 EC50” value came to 60000 pM and the “R3 Selectivity” value turned out to be 5.

HSDAVFTDNYTRLRKQMAAKKYLNSINNKR [R3P125]: the “R3 EC50” value worked out at 2000 pM and the “R3 Selectivity” value amounted to 30.

As to HSDAVFTDNYTRLRKQMAAKKYLNSIMNKR [R3P124], the “R3 EC50” value turned out to be 200 pM.

With HSDAVFTDNYTRLRKQMARKKYLNSIKNKR [R3P110], the “R3 EC50” value stood at 500 pM and the “R3 Selectivity” value came to 200.

For the molecule HSDAVFTDNYTRLRKQMANKKYLNSIKNKR [R3P107], the “R3 EC50” value came to 200000 pM.

In the case of HSDAVFTDNYTRLRKQMAAKKYLNSIWNKR [R3P132], the “R3 EC50” value was determined as 200 pM and the “R3 Selectivity” value was 50.

Take HSDAVFTDNYTRLRKQMAAKKYLNSIKNAR [R3P134]: the “R3 EC50” value was found to be 400 pM.

In the case of HSDAVFTDNYTRLRKQVAVKKYLQSILKKRY [R3P87], the “R3 EC50” value amounted to 200 pM and the “R3 Selectivity” value is 3.

Consider HSDAVFTDNYTRLRKQVAAKKYLQSILNKRY [R3P92], for which the “R3 EC50” value was 20 pM and the “R3 Selectivity” value was 100.

Take HSDAVFTDNYTRLRKQMAAKKYLNSIKNER [R3P137]: the “R3 EC50” value came out at 300 pM and the “R3 Selectivity” value stood at 100.

As to HSDAVFTDNYTRLRKQMAWKKYLNSIKNKR [R3P114], the “R3 EC50” value worked out at 2000 pM and the “R3 Selectivity” value came to 10.

HSDAVFTDNYTRLRKQMAQKKYLNSIKNKR [R3P109]: the “R3 EC50” value worked out at 10000 pM and the “R3 Selectivity” value was determined as 100.

For HSDAVFTDNYTRLRKQMAVKKYLNSIKNKR [R3P113], the “R3 EC50” value was 300 pM.

Regarding HSDAVFTDNYTRLRKQMAFKKYLNSIKNKR [R3P100], the “R3 EC50” value stood at 300 pM and the “R3 Selectivity” value was 30.

As to HSDAVFTDNYTRLRKQMAAKKYLNSIDNKR [R3P118], the “R3 EC50” value was 500 pM and the “R3 Selectivity” value turned out to be 30.

Consider HSDAVFTDNYTRLRKQMAAKKYLNSIENKR [R3P119], for which the “R3 EC50” value is 500 pM and the “R3 Selectivity” value came to 30.

On to HSDAVFTDNYTRLRKQMAIKKYLNSIKNKR [R3P103], for which the “R3 EC50” value came to 50 pM and the “R3 Selectivity” value amounted to 8.

In the case of HSDAVFTDNYTRLRKQMAAKKYLNSIGNKR [R3P121], the “R3 EC50” value is 1000 pM and the “R3 Selectivity” value stood at 50.

Take HSDAVFTDNYTRLRKQMAAKKYLNSITNKR [R3P130]: the “R3 EC50” value was found to be 1000 pM and the “R3 Selectivity” value is 40.

For the molecule HSDAVFTDNYTRLRKQMALKKYLNSIKNKR [R3P105], the “R3 EC50” value was found to be 300 pM and the “R3 Selectivity” value was found to be 3.

With HSDAVFTDNYTRLRKQMAAKKYLNSIKNDR [R3P136], the “R3 EC50” value came to 300 pM and the “R3 Selectivity” value stood at 70.

With HSDAVFTDNYTRLRKQMAAKKYLNSIFNKR [R3P120], the “R3 EC50” value came out at 200 pM and the “R3 Selectivity” value worked out at 50.

HSDAVFTDNYTRLRKQMAAKKYLNSIPNKR [R3P126]: the “R3 EC50” value was found to be 1000 pM and the “R3 Selectivity” value was 200.

In the case of HSDAVFTDNYTRLRKQVAAKKYLQSIKNK [R3P86], the “R3 EC50” value was 800 pM and the “R3 Selectivity” value came out at 110.

As for HSDAVFTDNYTRLRKQMAAKKYLNSIHNKR [R3P122], the “R3 EC50” value came to 200 pM and the “R3 Selectivity” value turned out to be 50.

Consider HSDAVFTDNYTRLRKQVAAKKYLQSILKK [R3P85], for which the “R3 EC50” value was 180 pM and the “R3 Selectivity” value is 30.

Take HSDAVFTDNYTRLRKQVAAKKYLQSILNKR [R3P93]: the “R3 EC50” value was found to be 140 pM and the “R3 Selectivity” value worked out at 40.
